Test [1] concerns the target T1, recombinant hIgG1 Fc-tagged cynomolgus monkey B7H4 (Creative BioMart, cat. no. VTCN1-1517R) (cynomolgus monkey, UniProt Q7Z7D3 25-259 (human entry)).
T1 construct: Bought protein; also called cynomolgus monkey B7H4 extracellular domain
T1 sequence: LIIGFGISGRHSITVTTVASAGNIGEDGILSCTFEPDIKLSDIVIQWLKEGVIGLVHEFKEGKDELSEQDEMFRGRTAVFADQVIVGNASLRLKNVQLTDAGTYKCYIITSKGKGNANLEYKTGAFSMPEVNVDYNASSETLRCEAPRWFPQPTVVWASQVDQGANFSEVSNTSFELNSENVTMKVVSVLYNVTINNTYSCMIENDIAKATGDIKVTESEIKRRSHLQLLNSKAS
The test is described as follows: BLI (Octet HTX); Fc-tagged cynomolgus B7H4 coupled to AR2G sensor, bispecific antibody in solution (monovalent B7H4 binding); 1st experiment. As to the method: In addition, the affinity of for cynomolgus monkey B7H4 was determined by BLI. […] Amine Reactive 2nd Generation (AR2G) biosensors (FortéBio, cat. no. 18-5092) were activated by reaction with 20 mM EDC (N-(3-Dimethylaminopropyl)-N′-ethylcarbodiimide hydrochloride) (FortéBio, cat. no. 18-1033) and 10 mM s-NHS (N-hydroxysulfosuccinimide sodium salt) (FortéBio, cat. no. 18-1067) for 300 s. The activated sensors were loaded with 10 μg/mL recombinant hIgG1 Fc-tagged cynomolgus monkey B7H4 (Creative BioMart, cat. no. VTCN1-1517R) in 10 mM Sodium Acetate pH 4.0 (FortéBio, cat. no. 18-1068) for 600 s and quenched with 1 M ethanolamine pH 8.5 (FortéBio, cat. no. 18-1071) for 300 s. […] A molecular mass of 150 kDa of the antibodies was used for calculations. For each antibody a reference sensor was used, which was incubated with Sample Diluent instead of antibody.
Data were acquired using Data Acquisition Software v9.0.0.49d (FortéBio) and analyzed with Data Analysis Software v9.0.0.12 (FortéBio). Data traces were corrected per antibody by subtraction of the reference sensor. The Y-axis was aligned to the last 10 s of the baseline, Interstep Correction alignment to dissociation and Savitzky-Golay filtering were applied. Data traces with a response<0.05 nm were excluded from analysis. The data was fitted with the 1:1 Global Full fit model using a window of interest for the association and dissociation times set at 100 s and 200 s respectively.

Test [2] has as its target T2, B7H4-IgV/B7H3-IgC.
T2 construct: also called chimeric molecule with the IgV domain of B7H4 and the IgC domain of B7H3
T2 full-length chimeric protein on cells: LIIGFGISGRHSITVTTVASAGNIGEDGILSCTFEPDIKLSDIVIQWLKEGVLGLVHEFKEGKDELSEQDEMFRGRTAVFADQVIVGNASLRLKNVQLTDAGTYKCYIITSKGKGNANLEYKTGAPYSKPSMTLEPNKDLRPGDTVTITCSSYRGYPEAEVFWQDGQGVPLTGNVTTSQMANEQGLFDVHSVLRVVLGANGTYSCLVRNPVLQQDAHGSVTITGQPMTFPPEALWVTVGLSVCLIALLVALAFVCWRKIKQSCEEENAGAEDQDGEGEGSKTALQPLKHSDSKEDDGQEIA
The test can be described thus: flow cytometry, HEK cells transiently transfected with B7H4-IgV/B7H3-IgC, PE anti-human IgG F(ab')2 [panel B7H4-IgV/B7H3-IgC]. A general note: Flow cytometry measures light scatter and fluorescence of single cells or particles in a stream.
Protocol: After washing twice in FACS buffer, cells were incubated with secondary antibody at 4° C. for 30 min. […] Next, cells were washed twice in FACS buffer, re-suspended in 20 μL FACS buffer and analyzed on an iQue Screener (Intellicyt Corporation, USA).
Further experiments were conducted to study the B7H4 domain specificity of the B7H4 antibodies in more detail, by analysis of full dose-response curves.

For test [3], the target named is T3, pig (Sus scrofa) B7H4, full length, on HEK-293F cells (pig, UniProt Q7Z7D3 26-282 (human entry)).
T3 construct: Uniprot F1SAY4; also called pig B7H4
T3 chain: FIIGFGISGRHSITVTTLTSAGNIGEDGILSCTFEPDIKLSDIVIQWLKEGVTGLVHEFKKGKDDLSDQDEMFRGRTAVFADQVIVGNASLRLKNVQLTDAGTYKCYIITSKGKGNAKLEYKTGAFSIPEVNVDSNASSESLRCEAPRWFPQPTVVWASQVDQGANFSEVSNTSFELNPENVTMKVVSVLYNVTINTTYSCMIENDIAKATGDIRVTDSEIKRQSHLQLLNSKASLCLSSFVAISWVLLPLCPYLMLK
The test can be described thus: flow cytometry, HEK-293F cells transfected with pig B7H4 [panel Pig B7H4]. As to the method:
Cells (3×10⁴ cells/well) were incubated in polystyrene 96-well round-bottom plates (Greiner bio-one, cat. no. 650180) with serial dilutions of antibodies (ranging from 0.000458 to 30 μg/mL in 4-fold dilution steps) in 100 μL PBS/0.1% BSA/0.02% azide (staining buffer) at 4° C. for 30 min. Experiments were performed in technical duplicate. After washing twice in staining buffer, cells were incubated in 50 μL secondary antibody at 4° C. for 30 min. As a secondary antibody, R-Phycoerythrin (PE)-conjugated goat-anti-human IgG F(ab′)₂ (1:500 in FACS buffer; Jackson ImmunoResearch Laboratories, Inc., West Grove, PA, cat. no. 109-116-098), was used. Cells were washed twice in staining buffer, re-suspended in 30 μL FACS buffer containing Topro-3 (1:10,000 dilution) and analyzed on an iQue Screener (Intellicyt Corporation, USA). Binding curves were analyzed using non-linear regression (sigmoidal dose-response with variable slope) using GraphPad Prism V7.02 software (GraphPad Software, San Diego, CA, USA).

In general, Kd refers to the free concentration of one partner at which half of the binding sites on the other are occupied at equilibrium, for simple one-to-one binding. A word on the koff: it is a measure of how fast the partners let go of each other. The kon is the rate constant with which the complex forms. For orientation: EC50 (read off the curve) means the midpoint of the concentration-response curve.

B1: bsIgG1-huCD3-FEALxB7H4-C1-FEAR (bispecific antibody)
heavy 1: not shown
light 1: not shown
heavy 2: QVQLQQWGAGLLKPSETLSLTCAVYGGSFSGYYWSWIRQPPGKGLEWIGEINHSGSTNYNPSLKSRVTISIDTSKNQFSLKLTSVTAADTAVFYCARGLFNWNFDSWGQGTLVTVSSASTKGPSVFPLAPSSKSTSGGTAALGCLVKDYFPEPVTVSWNSGALTSGVHTFPAVLQSSGLYSLSSVVTVPSSSLGTQTYICNVNHKPSNTKVDKRVEPKSCDKTHTCPPCPAPEFEGGPSVFLFPPKPKDTLMISRTPEVTCVVVAVSHEDPEVKFNWYVDGVEVHNAKTKPREEQYNSTYRVVSVLTVLHQDWLNGKEYKCKVSNKALPAPIEKTISKAKGQPREPQVYTLPPSREEMTKNQVSLTCLVKGFYPSDIAVEWESNGQPENNYKTTPPVLDSDGSFFLYSRLTVDKSRWQQGNVFSCSVMHEALHNHYTQKSLSLSPGK
light 2: DIQMTQSPSSLSASVGDRVTITCRASQGIRNDLGWYQQKPGKAPKRLIYGASSLQSGVPSRFSGSGSGTEFTLTISSLQPEDFATYYCLQHNSYPRTFGQGTTVEIKRTVAAPSVFIFPPSDEQLKSGTASVVCLLNNFYPREAKVQWKVDNALQSGNSQESVTEQDSKDSTYSLSSTLTLSKADYEKHKVYACEVTHQGLSSPVTKSFNRGEC
notes: also called bslgG1-huCD3-FEALxB7H4-C1-FEAR
With B1, in test [1], the Kd stood at 5.1 nM, the dissociation rate constant (koff) turned out to be 0.0014 s⁻¹ and the kon was found to be 270000 M⁻¹ s⁻¹.

B2: bsIgG1-huCD3-H101G-FEALxB7H4-C2-FEAR (bispecific antibody)
heavy 1: not shown
light 1: not shown
heavy 2: EVQLVQSGAEVKKPGASVKVSCKASGYTFTSYWIGWVRQAPGQGLEWIGDIYPGGGYTNYNEKFKGRVTITRDTSTSTAYLELSSLRSEDTAVYYCARLDGSSYRGAMDSWGQGTLVTVSSASTKGPSVFPLAPSSKSTSGGTAALGCLVKDYFPEPVTVSWNSGALTSGVHTFPAVLQSSGLYSLSSVVTVPSSSLGTQTYICNVNHKPSNTKVDKRVEPKSCDKTHTCPPCPAPEFEGGPSVFLFPPKPKDTLMISRTPEVTCVVVAVSHEDPEVKFNWYVDGVEVHNAKTKPREEQYNSTYRVVSVLTVLHQDWLNGKEYKCKVSNKALPAPIEKTISKAKGQPREPQVYTLPPSREEMTKNQVSLTCLVKGFYPSDIAVEWESNGQPENNYKTTPPVLDSDGSFFLYSRLTVDKSRWQQGNVFSCSVMHEALHNHYTQKSLSLSPGK
light 2: DIQMTQSPSSLSASVGDRVTITCKASQGFNKYVAWYQQKPGKAPKLLIYYTSTLQPGVPSRFSGSGSGRDYTLTISSLQPEDFATYYCLQYGNLLYAFGQGTKVEIKRTVAAPSVFIFPPSDEQLKSGTASVVCLLNNFYPREAKVQWKVDNALQSGNSQESVTEQDSKDSTYSLSSTLTLSKADYEKHKVYACEVTHQGLSSPVTKSFNRGEC
notes: also called bslgG1-huCD3-H101G-FEALxB7H4-C2-FEAR
Consider B2, for which the “EC50 (read off the curve)” value in test [2] is roughly 2 µg/mL.

B3: IgG1-B7H4-C3-FEAR (antibody, V domains shown)
VH: EVQLVQSGAEVKKPGASVKVSCKASGYTFTNFWIHWVRQAPGQGLEWIGEIDPSDSYTNYNQKFKGRVTITRDTSTSTAYLELSSLRSEDTAVYYCAREITTVDYWGQGTLVTVSS
VL: DIQMTQSPSSLSASVGDRVTITCSATSSISYMHWYQQKPGKAPKGWIYDTSKLAHGVPSRFSGSGSGTDFTLTISSLQPEDFATYYCHQRRSYPFTFGQGTKVEIKR
notes: Full length IgG1 FEAR, kappa; variable domains from WO2014159835
On to B3, for which the binding result in test [3] is on record as “no binding (tested: 30 µg/ml)”.
